Measured values as given in US20140087995A1 (published 2014).
Numbered stars: 1 amine (or outer) side, 2 acyl side, 3 side chain; on linkers, the order of the positions; unused ones are H or OH. Bridge positions count the residues as written; N and C are the ends. Side chains are listed from the residue outwards. Ends that are not written are not given here. * marks the point of attachment. C20 diacid = O=C(O)CCCCCCCCCCCCCCCCCCC(=O)*; γGlu = O=C(O)[C@H](CCC(=O)[*:2])N[*:1]

T1: human calcitonin receptor (human, UniProt P30988 25-474)
T1 construct: whole, on cells; Assay used cell membranes of the transfected BHK cells; also called hCTR; hCT
T1 sequence (looked up): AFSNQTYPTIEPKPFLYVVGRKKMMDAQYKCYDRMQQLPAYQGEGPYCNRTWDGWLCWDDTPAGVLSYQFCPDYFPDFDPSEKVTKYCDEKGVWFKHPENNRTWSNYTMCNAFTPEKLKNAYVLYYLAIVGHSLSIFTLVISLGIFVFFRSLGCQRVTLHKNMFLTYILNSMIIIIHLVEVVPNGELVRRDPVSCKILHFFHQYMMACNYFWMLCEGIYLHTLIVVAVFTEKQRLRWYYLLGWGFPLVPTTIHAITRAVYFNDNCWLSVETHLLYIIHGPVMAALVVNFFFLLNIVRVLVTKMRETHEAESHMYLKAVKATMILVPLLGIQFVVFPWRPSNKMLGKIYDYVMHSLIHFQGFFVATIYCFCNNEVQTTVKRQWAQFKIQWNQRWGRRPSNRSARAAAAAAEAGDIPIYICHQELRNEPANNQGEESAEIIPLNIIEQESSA

T2: rat amylin receptor (rat calcitonin receptor + rat RAMP 3) (rat, UniProt P32214 25-516; Q9JJ73 23-147)
T2 construct: whole, on cells; Membranes prepared from transiently transfected BHK tk'ts 13 cells; also called rAmylin-R; rat amylin 3(a) receptor
T2 sequence (looked up) 1: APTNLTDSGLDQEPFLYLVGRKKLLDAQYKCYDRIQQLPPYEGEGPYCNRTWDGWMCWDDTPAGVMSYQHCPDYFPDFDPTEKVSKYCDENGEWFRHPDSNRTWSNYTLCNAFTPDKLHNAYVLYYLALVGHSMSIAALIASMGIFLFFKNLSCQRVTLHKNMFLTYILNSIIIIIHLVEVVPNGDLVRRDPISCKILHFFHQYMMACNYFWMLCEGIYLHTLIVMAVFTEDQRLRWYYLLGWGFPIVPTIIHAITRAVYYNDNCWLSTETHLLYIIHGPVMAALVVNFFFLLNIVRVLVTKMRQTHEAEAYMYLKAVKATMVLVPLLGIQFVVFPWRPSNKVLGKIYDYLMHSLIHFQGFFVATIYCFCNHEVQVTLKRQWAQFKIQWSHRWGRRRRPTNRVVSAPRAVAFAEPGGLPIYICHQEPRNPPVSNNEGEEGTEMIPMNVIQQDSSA
T2 sequence (looked up) 2: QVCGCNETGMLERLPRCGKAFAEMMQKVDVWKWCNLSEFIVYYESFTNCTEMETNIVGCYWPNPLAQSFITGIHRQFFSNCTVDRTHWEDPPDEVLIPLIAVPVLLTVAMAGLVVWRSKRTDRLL

T3: rat calcitonin receptor (rat, UniProt P32214 25-516)
T3 construct: whole, on cells; Membranes prepared from transiently transfected BHK tk'ts 13 cells; also called rCTR; rat calcitonin (a) receptor
T3 sequence (looked up): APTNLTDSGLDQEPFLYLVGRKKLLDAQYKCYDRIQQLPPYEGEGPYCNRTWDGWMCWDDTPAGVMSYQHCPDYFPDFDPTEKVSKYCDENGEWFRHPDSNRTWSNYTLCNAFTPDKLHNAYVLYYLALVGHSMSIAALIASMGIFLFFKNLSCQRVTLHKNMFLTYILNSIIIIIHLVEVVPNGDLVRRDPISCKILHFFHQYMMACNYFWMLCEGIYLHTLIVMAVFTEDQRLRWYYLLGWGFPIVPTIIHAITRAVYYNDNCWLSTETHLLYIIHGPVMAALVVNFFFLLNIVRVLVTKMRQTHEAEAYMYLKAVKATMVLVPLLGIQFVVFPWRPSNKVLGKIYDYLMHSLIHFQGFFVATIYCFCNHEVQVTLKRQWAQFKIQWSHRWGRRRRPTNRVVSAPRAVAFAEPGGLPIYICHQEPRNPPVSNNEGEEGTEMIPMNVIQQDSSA

T4: human calcitonin receptor (human, UniProt P30988 25-474)
T4 construct: whole, on cells; Membranes from stably transfected BHK cells; also called hCTR; hCT
T4 sequence (looked up): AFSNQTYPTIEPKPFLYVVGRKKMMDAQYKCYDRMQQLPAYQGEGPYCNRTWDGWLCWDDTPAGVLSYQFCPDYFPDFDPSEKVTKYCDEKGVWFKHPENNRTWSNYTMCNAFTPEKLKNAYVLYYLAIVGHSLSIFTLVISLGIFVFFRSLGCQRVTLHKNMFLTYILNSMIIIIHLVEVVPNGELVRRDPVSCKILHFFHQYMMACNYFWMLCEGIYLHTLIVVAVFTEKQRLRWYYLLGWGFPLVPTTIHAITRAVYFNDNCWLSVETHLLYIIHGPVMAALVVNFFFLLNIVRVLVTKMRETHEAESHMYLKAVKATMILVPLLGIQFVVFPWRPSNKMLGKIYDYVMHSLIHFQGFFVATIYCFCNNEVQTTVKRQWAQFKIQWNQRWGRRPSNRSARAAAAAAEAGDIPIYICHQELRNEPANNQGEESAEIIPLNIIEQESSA


What was measured:
[1] = molecular target: T1, human calcitonin receptor; assay: SPA radioligand competition (125I-calcitonin), membranes of BHK cells with human calcitonin receptor
In short: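 BHK hCTR membranes 35 ng/μL + SPA beads 0.05 mg/well; buffer 50 mM Hepes pH 7.4, 1 mM CaCl2, 5 mM MgCl₂, 0.1% OA, 0.02% Tween20. 120 min, 25° C., shaking. Scintillation count; IC50 by one-site binding competition.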

[2] = molecular target: T1, human calcitonin receptor; assay: ratio IC50 hCTR / IC50 hAmylin-R of the two SPA competition assays; reference: human amylin receptor
Method: The resulting pellet was resuspended, homogenized and centrifuged (20.000 rpm, 15 min) in a buffer containing 20 mM Na-HEPES and 0.1 mM EDTA (pH 7.4, buffer 2). The resulting pellet was resuspended in buffer 2 and protein concentration was measured (BCA protein Assay, Pierce). The homogenate was kept cold during the whole procedure. The membranes were kept at −80° C. until use. The assay was performed in a 384 well Optiplate (PerkinElmer) in a total volume of 40 ul. Membranes were mixed with SPA beads. Final concentration of membranes 35 ng/μL final and SPA beads was 0.05 mg/well. Test-compounds were dissolved in DMSO and further diluted in assay buffer (50 mM Hepes, pH 7.4, 1 mM CaCl2, 5 mM MgCl₂, 0.1% OA and 0.02% Tween20). […] The final mixture was incubated with shaking at 400 rpm for 120 min at 25° C. prior to centrifugation (1500 rpm, 10 min). Samples were analyzed on TopCounter™ (Packard). The IC₅₀ was calculated using (one site binding competition analysis) GraphPad Prism5 as a measure of receptor affinity.
Membranes were prepared in the following way; the cells were rinsed with PBS and incubated with Versene for approximately 5 min before harvesting. The cells were flushed with PBS and the cell-suspension was centrifuged for 5 min at 1000 rpm. Cells were homogenized (Ultrathurrax) in a buffer containing 20 mM Na-HEPES and 10 mM EDTA (pH 7.4) and centrifuged at 20.000 rpm for 15 min. The resulting pellet was resuspended, homogenized and centrifuged (20.000 rpm, 15 min) in a buffer containing 20 mM Na-HEPES and 0.1 mM EDTA (pH 7.4, buffer 2). The resulting pellet was resuspended in buffer 2 and protein concentration was measured (BCA protein Assay, Pierce). The homogenate was kept cold during the whole procedure. The membranes were kept at −80° C. until use. Assay was performed in a 384 well Optiplate (PerkinElmer) in a total volume of 40 ul. Membranes were mixed with SPA beads.

[3] = molecular target: T2, rat amylin receptor (rat calcitonin …); assay: SPA competition vs 125I-rat amylin, membranes (Assay VI)
rat calcitonin receptor [4] = molecular target: T3, rat calcitonin receptor; assay: SPA competition vs 125I-calcitonin, membranes (Assay VIII)
[5] = molecular target: T4, human calcitonin receptor; assay: ratio of IC50 on human calcitonin receptor to IC50 on human amylin receptor
In short: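 Membranes (35 ng/μL final) + SPA beads, 50 mM Hepes pH 7.4 buffer with 1 mM CaCl2, 5 mM MgCl₂, 0.1% OA, 0.02% Tween20; 120 min, 25° C, shaking; centrifuged, counted; IC₅₀ by one-site binding competition.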

rat calcitonin receptor [6] = molecular target: T3, rat calcitonin receptor; assay: ratio of IC50 on rat calcitonin receptor to IC50 on rat amylin receptor

IC50 [1] [nM]	Ratio hCT/hAmylin binding [2]	IC50 [3] [nM]	IC50 (rat calcitonin receptor [4]) [nM]	Ratio hCT/hAmylin binding [5]	Ratio rCT/rAmylin binding (rat calcitonin receptor [6])	Binder
20.4	36.7					KCNTATCATQRLAEFLRHSSPNFGAIPSSTNVGSNTY (C20 diacid-gGlu-2xOEG on the alpha amino group of the N-terminal residue (Lys1); disulfide Cys2-Cys7; C-terminal amide, Synthetic analogue; also called compound 19)
21.8	25					KCNTATCATQRLANFLRHSSPNFGAIPSSTNVGSETY (C20 diacid-gGlu on the alpha amino group of the N-terminal residue (Lys1); disulfide Cys2-Cys7; C-terminal amide, Synthetic analogue; also called compound 23) [N^α1-[(4S)-4-carboxy-4-(19-carboxynonadecanoylamino)butanoyl]-[Arg17,Pro21,Pro27,Glu35]-h-amylin]
19.3	29					KCNTATCATQRLANFLRHSSPNFGAIPSSTNVGRNTY (C20 diacid-gGlu on the alpha amino group of the N-terminal residue (Lys1); disulfide Cys2-Cys7; C-terminal amide, Synthetic analogue; also called compound 39) [N^α1-[(4S)-4-carboxy-4-(19-carboxynonadecanoylamino)butanoyl]-[Arg17,Pro21,Pro27,Arg34]-h-amylin]
17.1	31.1					KCNTATCATQRLANFLRHSSPNFGAIPSSTNVGHNTY (C20 diacid-gGlu on the alpha amino group of the N-terminal residue (Lys1); disulfide Cys2-Cys7; C-terminal amide, Synthetic analogue; also called compound 40) [N^α1-[(4S)-4-carboxy-4-(19-carboxynonadecanoylamino)butanoyl]-[Arg17,Pro21,Pro27,His34]-h-amylin]
		0.164	10.4	13.3	63.2	K([γGlu-C20 diacid])CNTATCATQRLAEFLRHSSPNFGAIPSSTNVGPETY-NH2 (disulfide 2-7; N-terminus assumed; SMILES CC[C@H](C)[C@H](NC(=O)[C@H](C)NC(=O)CNC(=O)[C@H](Cc1ccccc1)NC(=O)[C@H](CC(N)=O)NC(=O)[C@@H]1CCCN1C(=O)[C@H](CO)NC(=O)[C@H](CO)NC(=O)[C@H](Cc1c[nH]cn1)NC(=O)[C@H](CCCNC(=N)N)NC(=O)[C@H](CC(C)C)NC(=O)[C@H](Cc1ccccc1)NC(=O)[C@H](CCC(=O)O)NC(=O)[C@H](C)NC(=O)[C@H](CC(C)C)NC(=O)[C@H](CCCNC(=N)N)NC(=O)[C@H](CCC(N)=O)NC(=O)[C@@H](NC(=O)[C@H](C)NC(=O)[C@@H]1CSSC[C@H](NC(=O)[C@@H](N)CCCCNC(=O)CC[C@H](NC(=O)CCCCCCCCCCCCCCCCCCC(=O)O)C(=O)O)C(=O)N[C@@H](CC(N)=O)C(=O)N[C@@H]([C@@H](C)O)C(=O)N[C@@H](C)C(=O)N[C@@H]([C@@H](C)O)C(=O)N1)[C@@H](C)O)C(=O)N1CCC[C@H]1C(=O)N[C@@H](CO)C(=O)N[C@@H](CO)C(=O)N[C@H](C(=O)N[C@@H](CC(N)=O)C(=O)N[C@H](C(=O)NCC(=O)N1CCC[C@H]1C(=O)N[C@@H](CCC(=O)O)C(=O)N[C@H](C(=O)N[C@@H](Cc1ccc(O)cc1)C(N)=O)[C@@H](C)O)C(C)C)[C@@H](C)O)
		0.674	65.9	36.2	97.7	{C20 diacid-γGlu}-GRCNTATCATQRLAHFLRHSSPNFGAIPSSTNVGPNTY-NH2 (disulfide 3-8; SMILES CC[C@H](C)[C@H](NC(=O)[C@H](C)NC(=O)CNC(=O)[C@H](Cc1ccccc1)NC(=O)[C@H](CC(N)=O)NC(=O)[C@@H]1CCCN1C(=O)[C@H](CO)NC(=O)[C@H](CO)NC(=O)[C@H](Cc1c[nH]cn1)NC(=O)[C@H](CCCNC(=N)N)NC(=O)[C@H](CC(C)C)NC(=O)[C@H](Cc1ccccc1)NC(=O)[C@H](Cc1c[nH]cn1)NC(=O)[C@H](C)NC(=O)[C@H](CC(C)C)NC(=O)[C@H](CCCNC(=N)N)NC(=O)[C@H](CCC(N)=O)NC(=O)[C@@H](NC(=O)[C@H](C)NC(=O)[C@@H]1CSSC[C@H](NC(=O)[C@H](CCCNC(=N)N)NC(=O)CNC(=O)CC[C@H](NC(=O)CCCCCCCCCCCCCCCCCCC(=O)O)C(=O)O)C(=O)N[C@@H](CC(N)=O)C(=O)N[C@@H]([C@@H](C)O)C(=O)N[C@@H](C)C(=O)N[C@@H]([C@@H](C)O)C(=O)N1)[C@@H](C)O)C(=O)N1CCC[C@H]1C(=O)N[C@@H](CO)C(=O)N[C@@H](CO)C(=O)N[C@H](C(=O)N[C@@H](CC(N)=O)C(=O)N[C@H](C(=O)NCC(=O)N1CCC[C@H]1C(=O)N[C@@H](CC(N)=O)C(=O)N[C@H](C(=O)N[C@@H](Cc1ccc(O)cc1)C(N)=O)[C@@H](C)O)C(C)C)[C@@H](C)O)
		2.7	216	100	79.8	{C20 diacid-γGlu}-GRCNTATCATQRLAHFLRHSSPNFGAIPSSTNVGSNTY-NH2 (disulfide 3-8; SMILES CC[C@H](C)[C@H](NC(=O)[C@H](C)NC(=O)CNC(=O)[C@H](Cc1ccccc1)NC(=O)[C@H](CC(N)=O)NC(=O)[C@@H]1CCCN1C(=O)[C@H](CO)NC(=O)[C@H](CO)NC(=O)[C@H](Cc1c[nH]cn1)NC(=O)[C@H](CCCNC(=N)N)NC(=O)[C@H](CC(C)C)NC(=O)[C@H](Cc1ccccc1)NC(=O)[C@H](Cc1c[nH]cn1)NC(=O)[C@H](C)NC(=O)[C@H](CC(C)C)NC(=O)[C@H](CCCNC(=N)N)NC(=O)[C@H](CCC(N)=O)NC(=O)[C@@H](NC(=O)[C@H](C)NC(=O)[C@@H]1CSSC[C@H](NC(=O)[C@H](CCCNC(=N)N)NC(=O)CNC(=O)CC[C@H](NC(=O)CCCCCCCCCCCCCCCCCCC(=O)O)C(=O)O)C(=O)N[C@@H](CC(N)=O)C(=O)N[C@@H]([C@@H](C)O)C(=O)N[C@@H](C)C(=O)N[C@@H]([C@@H](C)O)C(=O)N1)[C@@H](C)O)C(=O)N1CCC[C@H]1C(=O)N[C@@H](CO)C(=O)N[C@@H](CO)C(=O)N[C@H](C(=O)N[C@@H](CC(N)=O)C(=O)N[C@H](C(=O)NCC(=O)N[C@@H](CO)C(=O)N[C@@H](CC(N)=O)C(=O)N[C@H](C(=O)N[C@@H](Cc1ccc(O)cc1)C(N)=O)[C@@H](C)O)C(C)C)[C@@H](C)O, also called compound 99)
